Laboratory results published in the DeepSol protein solubility set.

experiment: soluble on expression in E. coli; label from the status in PepcDB or PDB records

With “MGHHHHHHSHGSHVKVKSFEKERQTEKRVLETELVDHVLQKLRTKVTDERNGREASDNLAVQNLKGSFSNASGLFEIHGATVVPIVSVLAPEKLSASTRRRYETQVQTRLQTSLANLHQKSSEIEILAVDLPKETILQFLSLEWDADEQAFNTTVKQLLSRLPKQRYLKLVCDEIYNIKVEKKVSVLFLYSYRDDYYRILF” as the sequence, how does the “soluble on expression in E. coli” value read?
The value was “not soluble”.

Which “soluble on expression in E. coli” value does the source give for “MGHHHHHHSHGSSAEIAATLGLPVVLVVDVRGMSQSVGAVVRGFATADPHVRIAGVILNKVGTDRHAEVCREAVEAVGVRVLGAIP” here?
Its value is “not soluble”.

For “MGHHHHHHSHKELQRRRRSLALPGLQGCAELRQKLSLNFHSLCEQQPIGRRLFRDFLATVPTFRKAATFLEDVQNWELAEEGPTKDSALQGLVATCASAPAPGNPQPFLSQAVATKCQAATTEEERVAAVTLAKAEAMAFLQEQPFKDFVTSAFYDKFLQWKLFEMQPVSDKYFTEFRVLGKGGFGEVCAVQVKNTGKMYACKKLDK”, which “soluble on expression in E. coli” value is on record?
The value was “soluble”.

With “MGHHHHHHSHKLEEAYEPNQVAISLIGEPTLYPMLPELIEEYKKRGFTTFLVTNGTNPDMLEKVKPTQLYLSLTAFDEDSHLVLNRPGKSNWERVLRSLEVMRDSGSRTVIRLTLIRGYNMDEEAIRKYSELIEMAEPDFIEAKAYMYLGYSRLRLRWGNMPEHADIVEFSRKLADSTGYEVKRESEPSRVVL” as the sequence, how does the “soluble on expression in E. coli” value read?
The value was “not soluble”.

For “MGHHHHHHSHLSFHFPPRVTGHPWSLVFCTSRDGFSLQSLYRRMEGCSGPVLLVLRDQDGQIFGAFSSSAIRLSKGFYGTGETFLFSFSPQLKVFKWTGSNSFFVKGDLDSLMMGSGSGRFGLWLDGDLFRGGSSPCPTFNNEVLARQEQFCIQELEAWLLS”, which “soluble on expression in E. coli” value is on record?
The value was “not soluble”.

Which “soluble on expression in E. coli” value does the source give for “MGHHHHHHSHMAAPPQLRALLVVVNALLRKRRYHAALAVLKGFRNGAVYGAKIRAPHALVMTFLFRNGSLQEKLWAILQATYIHSWNLARFVFTYKGLRALQSYIQGKTYPAHAFLAAFLGGILVFGENNNINSQINMYLLSRVLFALSRLAVEKGYIPEPRWDPFPLLTAVVWGLVLWLFEYHRSTLQPSLQSSMTYLYEDSNVWHDISDFLIYNKSRPSN” here?
Its value is “not soluble”.

Which “soluble on expression in E. coli” value does the source give for “MGHHHHHHSHMAEAKPDVWKSYNVGTVLFEDKASETKGSDIYHRIIPDAESYIKEQARTVLATLYNSPEDSITPVNKIHYTLEDIEGISAKGGGNGDVTIFYSTRHIEKSFAENDTAKLFFETRGVLLHELTHAYQLEPQGIGSYGTNRVFWAFIEGMADAVRVANGGFDGPNARPKGGNYMDGYRTAGYFFVWLRDNKDPEFLRKFNRSTLEVIPWSFDGAIKHILGTEYSIDELWHEYQVAVGDIQV” here?
Its value is “soluble”.

For “MGHHHHHHSHMAFFRRSLMTENAVLQLRAERIARATRPFLARGNRVRRCQRCLLPEKLCLCSTITPAQAKSRFCLLMFDTEPMKPSNTGRLIADILPDTVAFQWSRTEPSQDLLELVQNPDYQPMVVFPASYADEQREVIFTPPAGKPPLFIMLDGTWPEARKMFRKSPYLDNLPVISVDLSRLSAYRLREAQAEGQYCTAEVAIALLDMAGDTGAAAGLGEHFTRFKTRYLAGKTQHLGSITAEQLESV”, which “soluble on expression in E. coli” value is on record?
Its value is “soluble”.

With “MGHHHHHHSHMARLILERFLQEHEETPPSKSIINSMLRDPSQIPDGVLANQVYQCIVNDCCYGPLVDCIKHAIGHEHEVLLRDLLLEKNLSFLDEDQLRAKGYDKTPDFILQVPVAVEGHIIHWIESKASFGDECSHHAYLHDQFWSYWNRFGPGLVIYWYGFIQELDCNRERGILLKACFPTNIVTLCHSIA” as the sequence, how does the “soluble on expression in E. coli” value read?
Its value is “not soluble”.

For “MGHHHHHHSHMDDKKKKRSPKPCLAQPAQAPGTLRRVPVPTSHSGSLALGLPHLPSPKQRAKFKRVGKEKCRPVLAGGGSGSAGTPLQHSFLTEVTDVYEMEGGLLNLLNDFHSGRLQAFGKECSFEQLEHVREMQEKLARLHFSLDVCGEEEDDEEEEDGVTEGLPEEQKKTMADRNLDQLLSNLEDLSNSMYPFQGTRLCVCVPERSVSSSPALQEYSHTTNFPTSCSPVRFSHRLPKPRYRNLEFPQN”, which “soluble on expression in E. coli” value is on record?
Its value is “not soluble”.

With “MGHHHHHHSHMDIQKSENEDDSEWEDVDDEKGDSNDDYDSAGLLSDEDCMSVPGKTHRAIADHLFWSEETKSRFTEYSMTSSVMRRNEQLTLHDERFEKFYEQYDDDEIGALDNAELEGSIQVDSNRLQEVLNDYYKEKAENCVKLNTLEPLEDQDLPMNELDESEEEEMITVVLEEAKEKWDCESICSTYSNLYNHPQLIKYQPKPKQIRISSKTGIPLNVLPKKGLTAKQTERIQMINGSDLPKVSTQPRSKNESKEDKRARKQAIKEERKERRVEKKANKLAFKLEKRRQEKELLNLKKNVEGLKL” as the sequence, how does the “soluble on expression in E. coli” value read?
Its value is “not soluble”.

With “MGHHHHHHSHMDWNKTYAAIYRARKDYLKPIFEIDPIALKDLVGMESQKKALYENTLNFIQDKGANHALLWGSKGTGKSSLIKAIFNEFKEQGLRLVELNKEDLFALADIIDEIRLENFKFILFCDDFSFEKGDDSYKFLKPLLEGSIEKAPNNVIIYASSNRRHLLSESITDNLDTQITHTELHLSDAAEERLSLSDRFG” as the sequence, how does the “soluble on expression in E. coli” value read?
The value was “soluble”.

Which “soluble on expression in E. coli” value does the source give for “MGHHHHHHSHMEEAGSVALEELVEKEKDRFFSGVDYIVISDNLWISQRKPAITYGTRGNSYFMVEVKCRDQDFHSGTFGGILHEPMADLVALLGSLVDSSGHILVPGIYDEVVPLTEEEINTYKAIHLDLEEYRNSSRVEKFLFDTKEEILMHLWRYPSLSIHGIEGAFDEPGTKTVIPGRVIGKFSIRLVPHMNVSAVEKQVTRHLEDVFSKRNSSNKMVVSMTLGLHPWIANIDDTQYLAAKRAIRTVFGTEPDMIRDGSTIPIAKMFQEIVHKSVVLIPLGAVDDGEHSQNEKINRWNYIEGTKLFAAFFLEMAQLH” here?
Its value is “not soluble”.

With “MGHHHHHHSHMEELLPDGQIWANMDPEERMLAAATAFTHICAGQGEGDVRREAQSIQYDPYSKASVAPGKRPALPVQLQYPHVESNVPSETVSEASQRLRKPVMKRKVLRRKPDGEVLVTDESIISESESGTENDQDLWDLRQRLMNVQFQEDKESSFDVSQKFNLPHEYQGISQDQLICSLQREGMGSPAYEQDLIVASRPKSFILPKLDQLSRNRGKTDRVARYFEYKRDWDSIRLPGEDHRKELRWGVREQMLCRAEPQSKPQHIYVPNNYLVPTEKKRSALRWGVRCDLANGVIPRKLPFPLSPS” as the sequence, how does the “soluble on expression in E. coli” value read?
Its value is “not soluble”.

Which “soluble on expression in E. coli” value does the source give for “MGHHHHHHSHMEEMKKTAIRLPKGKQKPIKTEWNSRCVLFTYFQGDISSVVDEHFSRALSNIKSPQELTPSSQSEGVMLKNDDSMSPNQWRYSSPWTKPQPEVPVTNRAANCNLHVPGPMAVNQFSPSLARRASVRPGELWHFSSLAGTSSLEPGYSHPFPARHLVPEPQPDGKREPLLSLLQQDRCLARPQESAARENGNPGQIAGSTGLLFNLPPGSVHYKKLYVSRGSASTSLPNETLSELETPGKYSLTPPNHWGHPHRYLQHL” here?
Its value is “not soluble”.

For “MGHHHHHHSHMFGYVVVNEQNSIVFLDGNEEFKTIFQSLIQSEITSRKSDLDSASSGVGSSTCTEEQESSLDHFKKPNVVFNSSEISHILLPLILLYRSTSEKTKDPITEMSSQFGTISISKFYHNYLVLVFANDDRKRIEVSQTIEHTIATLFGPLIAFCHTDLTTVKKPKEHLACALTRKLSYSPKC”, which “soluble on expression in E. coli” value is on record?
Its value is “not soluble”.

With “MGHHHHHHSHMGNCCWTQCFGLLRKEAGRLQRVGGGGGSKYFRTCSRGEHLTIEFENLVESDEGESPGSSHRPLTEEEIVDLRERHYDSIAEKQKDLDKKIQKEQERQRIVQQYHPSNNGEYQSSGPEDDFESCLRNMKSQYEVFRSSRLSSDATVLTPNTESSCDLMTKTKSTSGNDDSTSLDLEWEDEEGMNRMLPMRERSKTEEDILRAALKYSNKETGSNPTSASDDSNGLEWENDFVSAEMDDNGNSEYSGFVNPVLELSDSGIRHSDTDQQTR” as the sequence, how does the “soluble on expression in E. coli” value read?
The value was “soluble”.

Which “soluble on expression in E. coli” value does the source give for “MGHHHHHHSHMGNCQAVNAAVLVLQHPGGIIDRYYSSVSVTEVMAMYPGHYVSLIIPLSEEEEKNIPATEKGDDKKQRKAVRFTRVQLLRPTENLVLGHAYRLITSQEVMKVLREKKSAKTKKHQIEKTTTAKKFSDKKVPEKKQGKQFRVIRNSTSLLKSKTWRPSLQSISEATS” here?
The value was “soluble”.

For “MGHHHHHHSHMGNDKRSQIFTLSRYAGILRRCLKENAMSAQKPGLHPRNRHHSRYDLATLCQVNPELRQFLTLTPAGEQSVDFANPLAVKALNKALLAHFYAVANWDIPDGFLCPPVPGRADYIHHLADLLAEASGTIPANASILDIGVGANCIYPLIGVHEYGWRFTGSETSSQALSSAQAIISSNPGLNRAIRLRRQKESGAIFNGIIHKNEQYDATLCNPPFHDSAAAARAGSERKRRNLGLNKDDALNFGGQQQELWCEGGEVTFIKKMIEESKGFAKQVMWFTSLVSRGENLPPLYRALTDVGAVKVVKKEMAQGQKQSRFIAWTFMNDEQRRRFVNRQR”, which “soluble on expression in E. coli” value is on record?
Its value is “soluble”.

With “MGHHHHHHSHMGYIYIVSFGDVEDRLLLADASNVKEIFDLEVRVSTVKADIEEAYNPQRNQYHAGTILSYLSRVVYPDMVRLVALVSFDLYEEGLNFVFGEAQYGGKYAVVSTYRLYHPDERVFFERVFKETNHELGHTFGLKHCPDPYCVMSFSNSIDEVDRKSRDFCPNCRRKLDYVLSYYR” as the sequence, how does the “soluble on expression in E. coli” value read?
Its value is “not soluble”.

For “MGHHHHHHSHMHTPEVASPSPGDRCREKSSPRPQTRFPSWHRVGDGWRVSIGTARSGCCQVGPCQGSSPLSTLCLAVPAPRYSNMACTQQSGGTTMVTADAPRLCLVNVAEQNGRLDPEEGPLSWHLSLAT”, which “soluble on expression in E. coli” value is on record?
The value was “not soluble”.

For “MGHHHHHHSHMIALKMFYTEETYEQFFDYGLDYVIDASDTICYKIHLMKECLKRDIPLISSMGAANKTDPTRFQIADISKTHTDPIAKVVRTKLRKEGIKKGVQVIFSDESPIVIREDVRKEVGNDEAKIRKAKMPPSSNAFVPSVAGLIMGGHVVMDLLKDIEIKRVKDK”, which “soluble on expression in E. coli” value is on record?
The value was “soluble”.

With “MGHHHHHHSHMKMGYEEVSQKFTSIRRVRGDNYCALRATLFQAMSQAVGLPPWLQDPELMLLPEKLISKYNWIKQWKLGLKFDGKNEDLVDKIKESLTLLRKKWAGLAEMRTAEARQIACDELFTNEAEEYSLYEAVKFLMLNRAIELYNDKEKGKEVPFFSVLLFARDTSNDPGQLLRNHLNQVGHTGGLEQVEMFLLAYAVRHTIQVYRLSKYNTEEFITVYPTDPPKDWPVVTLIAEDDRHYNIPVRVCEETSL” as the sequence, how does the “soluble on expression in E. coli” value read?
Its value is “soluble”.

Which “soluble on expression in E. coli” value does the source give for “MGHHHHHHSHMLDDQEAKREAETFKEQGNAYYAKKDYNEAYNYYTKAIDMCPKNASYYGNRAATLMMLGRFREALGDAQQSVRLDDSFVRGHLREGKCHLSLGNAMAACRSFQRALELDHKNAQAQQEFKNANAVMEYEKIAETDFEKRDFRKV” here?
The value was “not soluble”.

For “MGHHHHHHSHMLEPQENGVIDLPDYEHVEDETFPPFPPPASPERQDGEGTEPDEESGNGAPVPVPPKRTVKRNIPKLDAQRLISERGLPALRHVFDKAKFKGKGHEAEDLKMLIRHMEHWAHRLFPKLQFEDFIDRVEYLGSKKEVQTCLKRIRLDLPILHEDFVSNNDEVAENNEHDVTSTELDPFLTNLSESEMFASELSRSLTEEQQRRIERNKQLALERRQAKLLSNSQTLGNDMLMNTPRAHTVEEVNTDEDQKEESNGLNEDILDNPCNDAIANTLNEEETLLDQSFKNVQQQLDATSRNITEAR”, which “soluble on expression in E. coli” value is on record?
The value was “soluble”.
